The target in experiment [1] is Recombinant Human DLL4 (R&D Systems Cat#1506-D4/CF) (human) (UniProt Q9NR61). The experiment in a line: ECL multispot (MSD), 20 nM Fab.
The target in experiment [2] is rHuman Notch-1/Fc Chimera, CF (R&D Systems Cat#3647-TK) (human) (UniProt P46531). Nature of the experiment: ECL multispot (MSD), 20 nM Fab.
Experiment [3] concerns the target rHuman EGF R/Fc Chimera, CF (R&D Systems Cat#344-ER) (human) (UniProt P00533). Nature of the experiment: ECL multispot (MSD), 20 nM Fab.
The target in experiment [4] is rHuman ErbB2/Fc Chimera, CF (R&D Systems Cat#1129-ER) (human) (UniProt P04626). Nature of the experiment: ECL multispot (MSD), 20 nM Fab.
In experiment [5] the target is rHuman CD44/Fc Chimera, CF (R&D Systems Cat#3660-CD) (human) (UniProt P16070). Nature of the experiment: ECL multispot (MSD), 20 nM Fab.
Experiment [6] has as its target rHuman HGF R/c-MET/Fc Chimera, CF (R&D Systems Cat#358-MT/CF) (human) (UniProt P08581). The experiment in a line: ECL multispot (MSD) binding assay, antigens spotted on plate, 20 nM Fab.
Experiment [7] concerns the target Recombinant Human DLL4 (R&D Systems Cat#1506-D4/CF) (human) (UniProt Q9NR61). The experiment is described as above.
Experiment [8] concerns the target rHuman CD44/Fc Chimera, CF (R&D Systems Cat#3660-CD) (human) (UniProt P16070). The description is as above.
Experiment [9] addresses rHuman IGF-1 sR, (IGF-1 sR), CF (R&D Systems Cat#391-GR) (human) (UniProt P08069). Described as above.
Experiment [10] concerns the target rHuman Notch-1/Fc Chimera, CF (R&D Systems Cat#3647-TK) (human) (UniProt P46531). The description is as above.
The target in experiment [11] is rHuman HGF R/c-MET/Fc Chimera, CF (R&D Systems Cat#358-MT/CF) (human) (UniProt P08581). Nature of the experiment: ECL (MSD) multispot binding assay, antigen spotted on plate, 20 nM Fab.
Experiment [12] concerns the target rHuman P-Cadherin/Fc Chimera, CF (R&D Systems Cat#861-PC) (human) (UniProt P22223). The description is as above.
Experiment [13] addresses rHuman HGF R/c-MET/Fc Chimera (human) (UniProt P08581). Nature of the experiment: ECL (MSD) multispot assay, antigen spotted; blank spot of this row 424.
Experiment [14] has as its target rHuman IGF-1 sR (insulin-like growth factor-1 soluble receptor) (human) (UniProt P08069). Described as above.
The target in experiment [15] is rHuman CD44/Fc Chimera, CF (R&D Systems Cat#3660-CD) (human) (UniProt P16070). The experiment in a line: ECL multispot (MSD) binding assay, antigen spotted on plate, Fab in solution; blank spot 213.
In experiment [16] the target is rHuman EGF R/Fc Chimera, CF (R&D Systems Cat#344-ER) (human) (UniProt P00533). The description is as above.
Experiment [17] has as its target rHuman ErbB2/Fc Chimera, CF (R&D Systems Cat#1129-ER) (human) (UniProt P04626). The description is as above.
Experiment [18] concerns the target rHuman HGF R/c-MET/Fc Chimera, CF (R&D Systems Cat#358-MT/CF) (human) (UniProt P08581). The experiment is described as above.
Experiment [19] addresses rHuman IGF-1 sR, CF (R&D Systems Cat#391-GR) (human) (UniProt P08069). The experiment is described as above.
Experiment [20] deals with rHuman Notch-1/Fc Chimera, CF (R&D Systems Cat#3647-TK) (human) (UniProt P46531). Described as above.
Experiment [21] deals with rHuman P-Cadherin/Fc Chimera, CF (R&D Systems Cat#861-PC) (human) (UniProt P22223). The experiment is described as above.
For experiment [22], the target named is rHuman CD44/Fc Chimera, CF (R&D Systems Cat#3660-CD) (human) (UniProt P16070). The experiment in a line: ECL multispot (MSD) binding assay, antigen spotted on plate, Fab in solution; blank spot 240.
For experiment [23], the target named is rHuman EGF R/Fc Chimera, CF (R&D Systems Cat#344-ER) (human) (UniProt P00533). Described as above.
The target in experiment [24] is rHuman ErbB2/Fc Chimera, CF (R&D Systems Cat#1129-ER) (human) (UniProt P04626). The experiment is described as above.
For experiment [25], the target named is rHuman HGF R/c-MET/Fc Chimera, CF (R&D Systems Cat#358-MT/CF) (human) (UniProt P08581). Described as above.
Experiment [26] concerns the target rHuman IGF-1 sR, CF (R&D Systems Cat#391-GR) (human) (UniProt P08069). The description is as above.
The target in experiment [27] is rHuman Notch-1/Fc Chimera, CF (R&D Systems Cat#3647-TK) (human) (UniProt P46531). The experiment is described as above.
In experiment [28] the target is rHuman P-Cadherin/Fc Chimera, CF (R&D Systems Cat#861-PC) (human) (UniProt P22223). Described as above.
Experiment [29] has as its target rHuman CD44/Fc Chimera, CF (R&D Systems Cat#3660-CD) (human) (UniProt P16070). Nature of the experiment: ECL multispot (MSD) binding assay, antigen spotted on plate, Fab in solution; blank spot 424.
Experiment [30] deals with rHuman EGF R/Fc Chimera, CF (R&D Systems Cat#344-ER) (human) (UniProt P00533). Described as above.
In experiment [31] the target is rHuman ErbB2/Fc Chimera, CF (R&D Systems Cat#1129-ER) (human) (UniProt P04626). The description is as above.
In experiment [32] the target is rHuman HGF R/c-MET/Fc Chimera, CF (R&D Systems Cat#358-MT/CF) (human) (UniProt P08581). The experiment is described as above.
Experiment [33] concerns the target rHuman IGF-1 sR, CF (R&D Systems Cat#391-GR) (human) (UniProt P08069). The description is as above.
Experiment [34] has as its target rHuman Notch-1/Fc Chimera, CF (R&D Systems Cat#3647-TK) (human) (UniProt P46531). The experiment is described as above.
Experiment [35] concerns the target rHuman P-Cadherin/Fc Chimera, CF (R&D Systems Cat#861-PC) (human) (UniProt P22223). The experiment is described as above.
Experiment [36] deals with rHuman Erythropoietin R/Fc Chimera (human) (UniProt P19235). The experiment in a line: ECL (MSD) multispot assay, antigen spotted; blank spot of this row 284.
Experiment [37] addresses rHuman HGF R/c-MET/Fc Chimera (human) (UniProt P08581). The experiment is described as above.
Experiment [38] has as its target rHuman IGF-1 sR (insulin-like growth factor-1 soluble receptor) (human) (UniProt P08069). The description is as above.
The target in experiment [39] is rHuman CD44/Fc Chimera (human) (UniProt P16070). Nature of the experiment: ECL (MSD) multispot assay, antigen spotted; blank spot of this row 223.
Experiment [40] concerns the target rHuman Erythropoietin R/Fc Chimera (human) (UniProt P19235). Described as above.
The target of experiment [41] is rHuman HGF R/c-MET/Fc Chimera (human) (UniProt P08581). The description is as above.
The target of experiment [42] is rHuman IGF-1 sR (insulin-like growth factor-1 soluble receptor) (human) (UniProt P08069). Described as above.
Experiment [43] deals with rHuman CD44/Fc Chimera (human) (UniProt P16070). The experiment in a line: ECL (MSD) multispot assay, antigen spotted; blank spot of this row 236.
The target of experiment [44] is rHuman Erythropoietin R/Fc Chimera (human) (UniProt P19235). The experiment is described as above.
Experiment [45] deals with rHuman HGF R/c-MET/Fc Chimera (human) (UniProt P08581). The description is as above.
For experiment [46], the target named is rHuman IGF-1 sR (insulin-like growth factor-1 soluble receptor) (human) (UniProt P08069). The experiment is described as above.
Experiment [47] concerns the target rHuman Notch-1/Fc Chimera (human) (UniProt P46531). The description is as above.

For the substance “Fab VH3-23_IGHD2-21*01>3_IGHJ6*01 H100E/S108P/Y113G (EPG) & V2-13_IGLJ2*01”, the ECL signal ratio (column head gives no unit) in [1] and in [2] was 2.3 in each case.

With “Fab VH3-23_IGHD2-21*01>3_IGHJ6*01 H100E/S108P/Y113G (EPG) Y109L & V2-13_IGLJ2*01”, the ECL signal ratio (column head gives no unit) in [3] was 2.2; in experiment [4], 2.1.

For the substance “Fab VH3-23_IGHD2-21*01>3_IGHJ6*01 H100E/S108P/Y113G (EPG) Y109W & V2-13_IGLJ2*01”, the results for the ECL signal ratio (column head gives no unit) in [1] and in [5] were 4.3 and 2.4, respectively.

Turning to “Fab VH3-23_IGHD2-21*01>3_IGHJ6*01 H100E/S108P/Y113G Y110N & V2-13_IGLJ2*01”, the ECL multispot signal (ratio to blank; column not labelled) in experiment [6] worked out at 2.3.

Consider “Fab VH3-23_IGHD2-21*01>3_IGHJ6*01 H100E/S108P/Y113G Y110W & V2-13_IGLJ2*01”, for which the ECL multispot signal (ratio to blank; column not labelled) came to 3.9 in [7], 2.1 in experiment [8], 2.3 in experiment [9] and 3.2 in experiment [10].

Turning to “Fab VH3-23_IGHD2-21*01>3_IGHJ6*01 H100E/S108P/Y113G/Y110R & V2-13_IGLJ2*01”, the ECL signal/blank ratio in experiment [11] is 3.9; in experiment [12] it was 3.3.

Take “Fab VH5-51_IGHD5-18*01>3_IGHJ4*01 G100K/G104T & V3-4_IGLJ1*01”: the ECL signal came out at 838 in experiment [13]; 877 in [14]; 540 in experiment [15]; 768 in [16]; 1100 in experiment [17]; 867 in experiment [18]. The ECL signal in [19] is 781; in experiment [20], 437; in [21], 226; in experiment [22], 633; in experiment [23], 915; in [24], 1070. Besides, the ECL signal worked out at 936 in [25]; 964 in [26]; 507 in experiment [27]; 346 in experiment [28]; 579 in [29]; 852 in experiment [30]. In addition, the ECL signal in [31] stood at 1100; in experiment [32], 838; in experiment [33], 877; in experiment [34] it was 543; in experiment [35] it was 319.

As to “Fab VH5-51_IGHD5-18*01>3_IGHJ4*01 G100K/G104T D109A & V3-4_IGLJ1*01”, the ECL signal worked out at 612 in [36], 846 in experiment [37] and 967 in [38].

As to “Fab VH5-51_IGHD5-18*01>3_IGHJ4*01 G100K/G104T S84L & V3-4_IGLJ1*01”, the ECL signal in experiment [39] is 545; in experiment [40] it was 458; in experiment [41], 933; in experiment [42] it was 908.

Regarding “Fab VH5-51_IGHD5-18*01>3_IGHJ4*01 G100K/G104T S84V & V3-4_IGLJ1*01”, the ECL signal in experiment [43] stood at 577; in experiment [44] it was 484; in [45], 811; in experiment [46], 914; in experiment [47], 505.

Values taken from patent US20120316071A1.
